Laboratory results taken from doi:10.1101/2022.08.30.505852 (bioRxiv, 2022).
Where “and” joins values, the source holds several entries; their conditions need not be identical. Equal entries are not always repeated. Values belong to the binder of their own block, whether it stands above or below them.

B2: βCAT_(TAD2), β-catenin residues 730-781 (domain or fragment, human, UniProt P35222 730-781, looked up)
chain: GMDPMMEHEMGGHHPGADYPVDGLPDLGHAQDLMDGLPPGDSNQLAWFDTDL
B4: TAZ1 domain of CBP (residues 346-440) (domain or fragment)
chain: not shown

What was measured:
Assay in all cases: ITC
[1] = target: B4
[2] = target: B2
[3] = target: T1, βCAT_(CTERM), β-catenin residues 666-781 (human, UniProt P35222 666-781)
T1 sequence (looked up): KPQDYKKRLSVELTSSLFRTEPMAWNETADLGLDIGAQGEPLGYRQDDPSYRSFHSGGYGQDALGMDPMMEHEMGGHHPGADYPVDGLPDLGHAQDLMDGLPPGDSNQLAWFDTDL

βCAT_(CTERM) F777A = target: T2, βCAT_(CTERM) F777A (human, UniProt P35222 666-781, F777A)
T2 sequence (looked up): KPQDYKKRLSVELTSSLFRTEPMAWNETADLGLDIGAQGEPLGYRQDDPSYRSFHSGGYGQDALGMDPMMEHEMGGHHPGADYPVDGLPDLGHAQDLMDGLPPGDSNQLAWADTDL

βCAT_(CTERM) D764A = target: T3, βCAT_(CTERM) D764A (human, UniProt P35222 666-781, D764A)
T3 sequence (looked up): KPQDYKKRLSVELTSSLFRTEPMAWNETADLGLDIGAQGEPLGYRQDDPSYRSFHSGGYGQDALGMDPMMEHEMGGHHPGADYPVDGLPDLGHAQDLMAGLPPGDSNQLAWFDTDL

βCAT_(CTERM) D751A = target: T4, βCAT_(CTERM) D751A (human, UniProt P35222 666-781, D751A)
T4 sequence (looked up): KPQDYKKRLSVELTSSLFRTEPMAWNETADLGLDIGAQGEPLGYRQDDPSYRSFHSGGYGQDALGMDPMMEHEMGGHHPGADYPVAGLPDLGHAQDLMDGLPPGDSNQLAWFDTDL

βCAT_(CTERM) D761A = target: T5, βCAT_(CTERM) D761A (human, UniProt P35222 666-781, D761A)
T5 sequence (looked up): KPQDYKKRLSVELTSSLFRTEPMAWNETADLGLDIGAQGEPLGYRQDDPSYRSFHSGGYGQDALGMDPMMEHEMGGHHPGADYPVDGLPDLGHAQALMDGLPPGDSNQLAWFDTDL

Binder: B2
Kd [1]: 380 ± 20 nM

Binder: B4
Kd (βCAT_(CTERM) F777A): 550 nM and 320 nM
Kd (βCAT_(CTERM) D764A): 320 nM and 600 nM
Kd (βCAT_(CTERM) D751A): 390 nM and 550 nM
Kd (βCAT_(CTERM) D761A): 600 nM and 390 nM
Kd2 (two-site fit) [3]: 0.65 ± 0.22 µM

Continued, values first:

Kd [1]: 2170 ± 70 nM
B1: βCAT_(750-781), β-catenin residues 750-781 (peptide, UniProt P35222 750-781, looked up)
chain: VDGLPDLGHAQDLMDGLPPGDSNQLAWFDTDL

Kd2 (two-site fit) [2]: 1.18 ± 0.43 µM
Kd2 (two-site fit) [3]: 3.42 ± 0.2 µM
B3: TAZ2 domain of p300 (residues 1723-1812 with four stabilizing mutations) (domain or fragment, UniProt Q09472 1723-1812, looked up)
chain: ATQSPGDSRRLSIQRAIQSLVHAAQCRNANCSLPSCQKMKRVVQHTKGCKRKTNGGCPICKQLIALAAYHAKHCQENKCPVPFCLNIKQK
